T1: Abp1, P15891
T1 sequence (P15891 535-592, looked up): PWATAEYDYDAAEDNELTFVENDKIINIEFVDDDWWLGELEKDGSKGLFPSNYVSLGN

T2: Pex13, P80667
T2 sequence (P80667 295-386, looked up): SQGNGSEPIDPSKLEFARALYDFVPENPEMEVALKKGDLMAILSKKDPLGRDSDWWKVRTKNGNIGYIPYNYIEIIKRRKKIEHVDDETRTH

T3: Nbp2, Q12163
T3 sequence (Q12163 103-180, looked up): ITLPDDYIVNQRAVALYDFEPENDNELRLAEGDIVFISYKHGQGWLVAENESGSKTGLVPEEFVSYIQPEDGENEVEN

T4: Sla1-3, P32790
T4 sequence (P32790 344-424, looked up): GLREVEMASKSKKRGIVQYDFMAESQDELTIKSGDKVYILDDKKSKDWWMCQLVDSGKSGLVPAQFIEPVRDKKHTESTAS

T5: Boi2, P39969
T5 sequence (P39969 32-116, looked up): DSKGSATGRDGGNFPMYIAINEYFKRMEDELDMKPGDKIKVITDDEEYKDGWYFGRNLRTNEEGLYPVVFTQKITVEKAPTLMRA

T6: Bzz1-2, P38822
T6 sequence (P38822 568-633, looked up): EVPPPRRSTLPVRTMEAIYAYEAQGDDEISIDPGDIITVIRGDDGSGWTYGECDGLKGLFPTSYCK

T7: Bzz1-1, P38822
T7 sequence (P38822 478-572, looked up): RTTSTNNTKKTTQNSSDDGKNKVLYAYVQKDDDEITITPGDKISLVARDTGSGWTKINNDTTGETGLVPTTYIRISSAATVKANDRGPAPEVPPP

T8: Bud14, P27637
T8 sequence (P27637 247-328, looked up): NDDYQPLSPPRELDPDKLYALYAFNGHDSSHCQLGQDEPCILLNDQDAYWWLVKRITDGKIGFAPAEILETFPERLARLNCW

T9: Myo5, Q04439
T9 sequence (Q04439 1072-1160, looked up): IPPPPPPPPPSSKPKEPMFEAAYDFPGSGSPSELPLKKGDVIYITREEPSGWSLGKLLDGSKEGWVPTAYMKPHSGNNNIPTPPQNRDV

T10: Pin3, Q06449
T10 sequence (Q06449 53-122, looked up): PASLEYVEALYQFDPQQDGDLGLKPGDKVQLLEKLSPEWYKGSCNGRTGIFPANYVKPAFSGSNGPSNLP

T11: Lsb1, P53281
T11 sequence (P53281 45-122, looked up): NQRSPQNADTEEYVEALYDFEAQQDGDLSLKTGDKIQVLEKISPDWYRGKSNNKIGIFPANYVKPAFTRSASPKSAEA

T12: Boi1, P38041
T12 sequence (P38041 1-86, looked up): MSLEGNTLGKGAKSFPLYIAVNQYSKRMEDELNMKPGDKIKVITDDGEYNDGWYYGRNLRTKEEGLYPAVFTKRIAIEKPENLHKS

T13: Bbc1, P47068
T13 sequence (P47068 1-78, looked up): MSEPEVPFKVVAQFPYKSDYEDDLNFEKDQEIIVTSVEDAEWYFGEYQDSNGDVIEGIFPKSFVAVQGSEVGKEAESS

T14: Cdc25, P04821
T14 sequence (P04821 50-136, looked up): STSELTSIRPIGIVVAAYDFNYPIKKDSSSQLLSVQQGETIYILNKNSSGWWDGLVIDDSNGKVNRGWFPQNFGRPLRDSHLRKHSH

T15: Hof1, Q05080
T15 sequence (Q05080 590-669, looked up): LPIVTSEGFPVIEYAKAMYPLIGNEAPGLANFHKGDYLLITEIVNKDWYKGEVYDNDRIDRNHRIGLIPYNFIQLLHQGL

T16: Fus1, P11710
T16 sequence (P11710 432-512, looked up): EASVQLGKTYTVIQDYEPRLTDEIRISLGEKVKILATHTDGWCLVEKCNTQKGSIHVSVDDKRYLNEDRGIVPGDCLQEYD

T17: Sla1-2, P32790
T17 sequence (P32790 60-140, looked up): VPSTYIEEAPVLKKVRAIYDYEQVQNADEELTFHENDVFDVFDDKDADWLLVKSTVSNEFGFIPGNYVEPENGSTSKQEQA

T18: Cyk3, Q07533
T18 sequence (Q07533 1-83, looked up): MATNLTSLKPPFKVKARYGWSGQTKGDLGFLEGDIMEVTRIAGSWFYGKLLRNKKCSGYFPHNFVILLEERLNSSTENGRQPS

T19: Lsb4, P32793
T19 sequence (P32793 402-468, looked up): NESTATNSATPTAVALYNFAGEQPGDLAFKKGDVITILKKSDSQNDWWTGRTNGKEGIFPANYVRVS

T20: Hse1, P38753
T20 sequence (P38753 208-285, looked up): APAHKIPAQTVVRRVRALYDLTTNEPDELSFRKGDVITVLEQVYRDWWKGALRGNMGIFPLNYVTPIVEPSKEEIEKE

T21: Lsb3, P43603
T21 sequence (P43603 385-451, looked up): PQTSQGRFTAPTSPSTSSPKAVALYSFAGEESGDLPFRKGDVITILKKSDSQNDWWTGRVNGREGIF

B1: unnamed (peptide)
chain: SSAAPPPPPRRATPE
B2: unnamed (peptide)
chain: QQEQNTPPLPPKPKS
B3: unnamed (peptide)
chain: EAEEAAPQLPSRSSA

Target: T1, Abp1, P15891
Assay: SPOT array
Conditions: median of control spots 935

| SPOT intensity | Binder |
| --- | --- |
| 23 | B1 |
| 3 | B2 |
| 0 | B3 |

Target: Bem1-2, P29366
Assay: SPOT array
Conditions: median of control spots 4347

Sequence of Bem1-2, P29366 (P29366 139-227): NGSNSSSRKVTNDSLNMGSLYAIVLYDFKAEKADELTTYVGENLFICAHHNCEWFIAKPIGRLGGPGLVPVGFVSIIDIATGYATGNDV

| SPOT intensity | Binder |
| --- | --- |
| 1 | B1 |
| 1 | B2 |
| 0 | B3 |

Target: T2, Pex13, P80667
Assay: SPOT array
Conditions: median of control spots 1341

| SPOT intensity | Binder |
| --- | --- |
| 58 | B1 |
| 79 | B2 |
| 6 | B3 |

Target: T3, Nbp2, Q12163
Assay: SPOT array
Conditions: median of control spots 357

| SPOT intensity | Binder |
| --- | --- |
| 0 | B1 |
| 0 | B2 |
| 0 | B3 |

Target: Bem1-1, P29366
Assay: SPOT array
Conditions: median of control spots 4282

Sequence of Bem1-1, P29366 (P29366 55-141): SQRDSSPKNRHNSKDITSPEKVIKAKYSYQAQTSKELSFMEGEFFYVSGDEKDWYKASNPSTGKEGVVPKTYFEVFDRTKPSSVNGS

| SPOT intensity | Binder |
| --- | --- |
| 1 | B1 |
| 1 | B2 |
| 0 | B3 |

Target: T4, Sla1-3, P32790
Assay: SPOT array
Conditions: median of control spots 5475

| SPOT intensity | Binder |
| --- | --- |
| 0 | B1 |
| 3 | B2 |
| 2 | B3 |

Target: T5, Boi2, P39969
Assay: SPOT array
Conditions: median of control spots 1161

| SPOT intensity | Binder |
| --- | --- |
| 0 | B1 |
| 0 | B2 |
| 1 | B3 |

Target: T6, Bzz1-2, P38822
Assay: SPOT array
Conditions: median of control spots 4538

| SPOT intensity | Binder |
| --- | --- |
| 1 | B1 |
| 3 | B2 |
| 2 | B3 |

Target: Sho1, P40073
Assay: SPOT array
Conditions: median of control spots 1148

Sequence of Sho1, P40073 (P40073 287-367): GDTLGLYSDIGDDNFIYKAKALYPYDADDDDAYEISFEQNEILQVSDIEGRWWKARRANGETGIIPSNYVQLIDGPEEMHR

| SPOT intensity | Binder |
| --- | --- |
| 3 | B1 |
| 14 | B2 |
| 0 | B3 |

Target: T7, Bzz1-1, P38822
Assay: SPOT array
Conditions: median of control spots 4446

| SPOT intensity | Binder |
| --- | --- |
| 0 | B1 |
| 0 | B2 |
| 2 | B3 |

Target: T8, Bud14, P27637
Assay: SPOT array
Conditions: median of control spots 956

| SPOT intensity | Binder |
| --- | --- |
| 0 | B1 |
| 0 | B2 |
| 0 | B3 |

Target: T9, Myo5, Q04439
Assay: SPOT array
Conditions: median of control spots 471

| SPOT intensity | Binder |
| --- | --- |
| 18 | B1 |
| 0 | B2 |
| 0 | B3 |

Target: Rvs167, P39743
Assay: SPOT array
Conditions: median of control spots 2707

Sequence of Rvs167, P39743 (P39743 419-482): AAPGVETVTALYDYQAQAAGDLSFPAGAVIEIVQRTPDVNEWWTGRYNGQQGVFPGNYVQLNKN

| SPOT intensity | Binder |
| --- | --- |
| 1790 | B1 |
| 0 | B2 |
| 75 | B3 |

Target: T10, Pin3, Q06449
Assay: SPOT array
Conditions: median of control spots 2171

| SPOT intensity | Binder |
| --- | --- |
| 5 | B1 |
| 0 | B2 |
| 2 | B3 |

Target: GST
Assay: SPOT array
Conditions: median of control spots 978

| SPOT intensity | Binder |
| --- | --- |
| 1 | B1 |
| 0 | B2 |
| 0 | B3 |

Target: T11, Lsb1, P53281
Assay: SPOT array
Conditions: median of control spots 388

| SPOT intensity | Binder |
| --- | --- |
| 266 | B1 |
| 0 | B2 |
| 62 | B3 |

Target: Myo3, P36006
Assay: SPOT array
Conditions: median of control spots 468

| SPOT intensity | Binder |
| --- | --- |
| 99 | B1 |
| 0 | B2 |
| 0 | B3 |

Target: T12, Boi1, P38041
Assay: SPOT array
Conditions: median of control spots 1162

| SPOT intensity | Binder |
| --- | --- |
| 1 | B1 |
| 0 | B2 |
| 1 | B3 |

Target: T13, Bbc1, P47068
Assay: SPOT array
Conditions: median of control spots 796

| SPOT intensity | Binder |
| --- | --- |
| 8 | B1 |
| 0 | B2 |
| 0 | B3 |

Target: T14, Cdc25, P04821
Assay: SPOT array
Conditions: median of control spots 969

| SPOT intensity | Binder |
| --- | --- |
| 2 | B1 |
| 0 | B2 |
| 2 | B3 |

Target: T15, Hof1, Q05080
Assay: SPOT array
Conditions: median of control spots 4086

| SPOT intensity | Binder |
| --- | --- |
| 1 | B1 |
| 950 | B2 |
| 0 | B3 |

Target: T16, Fus1, P11710
Assay: SPOT array
Conditions: median of control spots 1200

| SPOT intensity | Binder |
| --- | --- |
| 0 | B1 |
| 0 | B2 |
| 1 | B3 |

Target: T17, Sla1-2, P32790
Assay: SPOT array
Conditions: median of control spots 712

| SPOT intensity | Binder |
| --- | --- |
| 0 | B1 |
| 1 | B2 |
| 0 | B3 |

Target: T18, Cyk3, Q07533
Assay: SPOT array
Conditions: median of control spots 1451

| SPOT intensity | Binder |
| --- | --- |
| 0 | B1 |
| 0 | B2 |
| 0 | B3 |

Target: T19, Lsb4, P32793
Assay: SPOT array
Conditions: median of control spots 397

| SPOT intensity | Binder |
| --- | --- |
| 965 | B1 |
| 776 | B2 |
| 529 | B3 |

Target: T20, Hse1, P38753
Assay: SPOT array
Conditions: median of control spots 1727

| SPOT intensity | Binder |
| --- | --- |
| 0 | B1 |
| 184 | B2 |
| 0 | B3 |

Target: T21, Lsb3, P43603
Assay: SPOT array
Conditions: median of control spots 406

| SPOT intensity | Binder |
| --- | --- |
| 706 | B1 |
| 923 | B2 |
| 956 | B3 |
